Where “and” joins values, the source holds several entries; their conditions need not be identical. Identical values can stand only once.
T1: recombinant human RNF43 extracellular domain (human, UniProt Q68DV7 24-197)
T1 construct: extracellular domain; also called huRNF43; human RNF43 ECD
T1 sequence (looked up): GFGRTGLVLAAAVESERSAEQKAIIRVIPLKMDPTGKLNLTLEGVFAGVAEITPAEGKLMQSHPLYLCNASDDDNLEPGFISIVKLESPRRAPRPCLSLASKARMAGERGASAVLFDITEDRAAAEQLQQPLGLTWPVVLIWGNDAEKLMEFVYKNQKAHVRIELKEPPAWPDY


Target: T1, recombinant human RNF43 extracellular …
Assay: SPR Biacore 8K; antibody captured on Protein A; RNF43 ECD analyte; 25 C
Experimental: Antibodies were screened for binding to recombinant human RNF43 and ZNRF3 ECDs using a Biacore® 8 k instrument (GE Life Sciences). Briefly, antibodies diluted to 1 μg/ml in 1×HBSP buffer (Cytiva, BR100368) were captured on a Sensor Chip Protein A (GE Life Sciences) using a flow rate of 10 μl/minute and a contact time of 60 seconds. Binding of recombinant human RNF43 and ZNRF3 extracellular domain to the captured antibodies was analyzed at 25° C. using a single cycle kinetics method with a flow rate of 30 μl/minute, a contact time of 180 seconds and a dissociation time of 600 seconds. The concentration of recombinant human RNF43 and ZNRF3 extracellular domain in the single cycle kinetics were 0, 0.8, 4, 20, and 100 nM. Between cycles, the chip was regenerated using 10 mM Glycine HCl pH 1.5 injected for 30 seconds at 30 μl/minute. Data were evaluated using Biacore 8K Evaluation software (GE Life Sciences). Kinetic constants were obtained using a 1:1 binding model with the parameter RI set to zero. Cell surface ligase antibodies with sub-nanomolar affinities may provide advantages in certain instances, for example, in the degradation efficiency which is correlated with the durability of the ternary complex as shown in FIG. 5D.

Binder	Kd
RNF43-71 (antibody, V domains shown, Rat clone; VH/VL only) VH: QVKLLQSGAALVKPGDSVKMSCKASGYTFTDHIIHWVKQSHGKSLEWIGYINPYSGSTNYNEKFKSKATLTVDRSNNTAYMEFSRLTSEDSAIYYCARKNYGGYGVMDAWGQGASVTVSS VL: DIQMTQSPSLLSASVGDRVTLSCKASQNIYKNLAWHQQKLGEAPKLLIYYANSLQTGIPSRFSGSGFGTDYTLTISSLQPEDVATYFCQQSSSGWTFGGGTKLELK	0.03 nM
RNF43-130 (antibody, V domains shown, Rat clone; VH/VL only) VH: QVQLVQSGAEVVKPGSSVKISCKASGYTFTGNFIHWIKQQPGNGLEWIGWIYPGDGDTTYNQKFSGKATLTADKSSSTAYMQLSNLTSEDSAVYFCAKWRDLSSDWFAYWGQGTLVTVSS VL: DIVMTQSPVSLTVSEGEMVTINCKSSQSLLSSGNQKNYLAWYQQKPGQSPRLLIYFTSTRQSGVPDRFIGSGSGTDFTLTISDVQAEDLADYYCLQHYSYPNTFGAGTKLELK	0.134 nM
RNF43-177 (antibody, V domains shown, Rat clone; VH/VL only) VH: QVKLLQSGAALVKPGDSAKMSCKASGYTFTDSIIHWVKQSHGKSLEWIGYINPYSGGIQYNEKFKNKATLTVDKSSSTAYVEFSRLTSEDSAIYYCAREIRGMDAWGQGTSVTVSS VL: DIVLTQSPATLSVTPGESVSLSCRASQGISTSLHWYQQKSTESPRLLIKYASQSVSGIPSRFSGSGSGTDFTLSINRVESEDFSVYYCQQSYNLPRTFGPGTKLELK	6.47 nM
RNF43-31 (antibody, V domains shown, Rat clone; VH/VL only) VH: AVQLVESGGGSVQPGRSMRLSCAASGFTFSNYDMTWVRQAPTKGLEWVASITYDGGSTYSRDSVKGRFTISRDNAKSTLYLQMDSLRSEDTATYYCTTDRGRYLPYYFDYWGQGVMVTVSA VL: DVVLTQTPVSLSVTLGDQASISCRSSQSLEYSDGYSYLEWYLQKPGQSPQLLIYEVSSRFSGVPDRFIGSGSGTDFTLKISRVEPEDLGVYYCFQAIHDPTFGAGTKLELK	0.13 nM
RNF43-41 (antibody, V domains shown, Rat clone; VH/VL only) VH: EVHLVESGGGLVQPGRSVKLSCTASGFTFSYYDMAWVRQAPTKGLEWVASLTYDGSSTYYRDSVKGRFTISRDNAKSTLYLQMDSLRSEDTATYYCTTDRGRYLPYHFDYWGQGVMVTVSS VL: DVVLTQTPVSLSVTLGDQASISCRSSQSLEYSDGYTYLEWYLQKPGQSPQLLIYEVSTRFSGVPDRFIGSGSGTDFTLKISRVEPEDLGVYYCFQATHDPTFGAGTKLELK	0.37 nM
RNF43-67 (antibody, V domains shown, Rat clone; VH/VL only) VH: AVQLVESGGGSVQPGRSMRLSCAASGFTFSNYDMTWVRQAPTKGLEWVASITSDGGSTYSRDSVKGRFTISRDNAKSTLYLQMDSLRSEDTATYYCTTDRGRYLPYYFDYWGQGVMVTVSA VL: DVVLTQTPVSLSVTVGDQASISCRSSQSLEYSDGYSYLEWYLQKPGQSPQLLIYEVSSRFSGVPDRFIGSGSGTDFTLKISRVEPEDLGVYYCFQAIHDPTFGAGTKLELK	0.59 nM
RNF43-196 (antibody, V domains shown, Rat clone; VH/VL only) VH: QVQLQQSGAELVKPGSSVKISCKASGFTFTSNFMHWIKQQPGNGLEWIGWIYPGDGDTDYNQKFNGKATLTADKSSSTAYMELSSLTSEDSAVYFCARAYYGSYWYFDFWGPGTKVTVSS VL: DVQMTQSPHNLAASPGESVSINCKASKSISKYLAWYQQKPGKVKKLLIYGGSTLQSGIPSRFSGSGSGTDFTLTISSLEPEDFGLYYCQQHNEYPPTFGGGTRLELQ	0.114 nM
RNF43-86 (antibody, V domains shown, Rat clone; VH/VL only) VH: EVQLVESGGGLVQPGRSLKLSCAASGFTFTNYYMAWVRQAPTKGLEWVASISPSGDTTYYPDSVKGRFTVSRDNAKSTQYLQMDNLRSEDTATYYCARDAYTYYGYKGWYFDFWGPGTMVTVSS VL: QFVLTQPNSVSTNLGSAVKLSCKRSTDDIGSNYVNWYQQHEGRSPTTMIYRDDKRPDGVPDRFSGSIDRSSNSALLTINNVQTEDEADYFCQSYSSGIYIFGGGTKLTVL	17.3 nM
RNF43-53 (antibody, V domains shown, Rat clone; VH/VL only) VH: EVQLVESGGGLVQPGRSLKLSCGASGFSFSTYYMVWVRQAPTKGLEWVASISPNGGNTYYPDSVKGRFTISRDNAKSTQYLQMDSLRSEDTATYYCATDGSYYYDGYRWLAYWGQGTLVTVSS VL: QFVLTQPNSVSTNLGSTVKLSCKRSTGNIGSNYVSWYQQHEGRSPTTLIYRDDKRPDGVPDRFSGSIDRSSNSALLTINNVQTEDEAGYFCQSFSSGLFIFGGGTKLTVL	3.3 nM
RNF43-181 (antibody, V domains shown, Rat clone; VH/VL only) VH: QIQLQQSGAELVKPGSSVKISCKSSAYRFTSNFIHWIRQQPGNGLEWIGWIYPGDGDAENNQKFNGKVILTADKSSSTAYMQLSSLTSEDSAVYFCARGVMTSLWYFDFWGPGTMVTVSS VL: DVQMTQSPYNLAASPGESVSINCKASKSISKYLAWYQQKPGKTNKLLIYDGSTLQSGIPSRFSGSGSGTDFTLTIRSLEPEDFGLYYCQQHHEQPPTFGSGTKLEIK	0.0859 nM
RNF43-38 (antibody, V domains shown, Rat clone; VH/VL only) VH: EVQLVESGGGLVQPGTSLKISCVASGFTFSDYWMSWVRQTPGKTMEWIGDIKSDGSYTNYAPSLKNRFTISRDNAKSTLYLQMNNVRSEDTATYYCTRDAYRYNYVHYGLDAWGQGASVTVSS VL: QFVLTQPNSVSANLGSTVKLSCNRSTGNIGSNYVSWYQQHEGRSPTTMLYRDGKRPDGIPDRFSGSIDGSSNSALLTINNVQTEDEADYFCQSYSSGIKYIFGGGTKLTVL	4.93 nM and 8.66 nM
RNF43-56 (antibody, V domains shown, Rat clone; VH/VL only) VH: EVQLVESGGGLVQPGTSLKISCVASGFTFSDYWMSWVRQTPGRTMEWIGDIKYDGSYTNYAPSLKNRFTISRDNAKSILYLQMNNVRSEDTATYYCTRDAYGYNYVHYGLDAWGQGASVTVSS VL: QFVLTQPNSVSSNLGSTVKLSCNRSTGNIGSNYVSWYQQHEGRSPTTMIYRDDKRPDGIPDRFSGSIDGSSNSALLTINNVQTEDEADYFCQSYSSDIKYIFGGGTKLTVL	1.84 nM
RNF43-80 (antibody, V domains shown, Rat clone; VH/VL only) VH: EVQLVESGGGLVQPGRSLKVSCLASGFNFGDFGMNWIRQAPGKGLEWVSYISSTSGTIYYADTVKGRFTISRDNAKNTLYLQLSSLRSEDTALYYCARPAGRYFDYWGQGVLVTVSS VL: DIVMTQSPSSLAVSAGETVTIDCKSNQSLLYSGNQKNYLAWYQQKPGQSPKLLIYWTSTRQSGVPDRFIGSGSGTEFTLTISSVQAEDLAIYYCQQYYHTPFTFGSGTKLEIK	0.48 nM
RNF43-61 (antibody, V domains shown, Rat clone; VH/VL only) VH: EVQLVESGGDLVQPGRSLTLSCAASGFIFSDYYMAWVRQAPKKGLEWVASITYEGSSTYYGDSVKGRFTISRDNTKSTLYLLMNSLRSDDSATYYCARHGAHYTYNYAYYFDYWGQGVMVTVSS VL: DIMLTQSPTTLSVIPGENISLSCRASQSVGTNLHWYQQKPSESPRVLINYASQSISGIPSRFSGSGSGTDFTLNINRVEPEDSSVYYCQQSKSWPFTFGSGTKLEIK	0.43 nM
RNF43-74 (antibody, V domains shown, Rat clone; VH/VL only) VH: EVQLVESGGDLVQPGRSLTLSCAASGFTFSDYYMAWVRQAPKKGLEWVASITYEGSSTYYGDSVKGRFTISRDNTKSTLYLLMNSLRSDDTATYYCARHGAHYTYNYAYYFDYWGQGVMVTVSS VL: DIMLTQSPTTLSVIPGENISLSCRASQSVGTNLHWYQQKPSESPRVLINYASQSISGIPSRFSGSGSGTDFTLNINRVEPEDSSVYYCQQSKSWPFTFGSGTKLEIK	0.35 nM
RNF43-136 (antibody, V domains shown, Rat clone; VH/VL only) VH: QVQLQQSGAELVKPGSSVKISCKASGYTFTSKFMHWIKQQPGSGLEWIGWIYPEHGNTKYNQKFDGKATLTADKSSSTAYMQLSSLTSGDSAVYFCARQSSQGAYAMDAWGQGTSVTVSS VL: DIQMTQSPVSLSASLGQTVSIECLTSEGIPIDLAWYQQKSGKSPQLLIYAASRSQDGVPSRFSGSGSGTRYSLKISGMQPEDEADYFCQQTYKYPFTFGSGTRLEIK	1.91 nM

From patent publication US20240101708A1 (Genentech, published 2024)
